Laboratory results taken from the supplement of paper PMC9170038.

Tested on: MS2 coat protein
Test: apparent KD of MS2 coat protein; designed switch direction (-1 OFF switch, 1 ON switch): 1; higher = weaker reporter binding
How it was run: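 Transcription of designed RNA switches on Illumina chips was done by stalled E. coli RNA polymerase. SNAP-549-labelled MS2 coat protein was then titrated in doubling steps from 0.7 or 1.5 nM to 3 µM, with steps of 0.8–1.5 h at the lowest and 10–20 min at the highest concentration. The per-design median over clusters of curve-fitted normalised fluorescence is reported as apparent KD.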

[1] = Eterna round: R95, input ligand: FMN 200 uM
[2] = Eterna round: R95, input ligand: microRNA oligo, concentration not stated
[3] = Eterna round: R95, input ligand: none
[4] = input ligand: microRNA oligo, concentration not stated

Row | Sequence | apparent KD of MS2 coat protein [1] [nM] | apparent KD of MS2 coat protein [2] [nM] | apparent KD of MS2 coat protein [3] [nM] | apparent KD of MS2 coat protein (input ligand: FMN 200 uM) [nM] | apparent KD of MS2 coat protein [4] [nM] | apparent KD of MS2 coat protein (input ligand: none) [nM]
1 | AGCUAUCGCGUACGAUAGCUGAAGCGUGUACAUGAGGAUCACCCAUGUCAUGUGCAAGCUUUUUGCUCGUCUUAUUG [JL-shm-2.29 JL mod] (puzzle: Sensor for hsa-mir-208a) | 353 | 14.8 | 459 |  |  | 
2 | GAGGGACAGACCAACAUGAGGAUCACCCAUGUCCUCGCAGUUCAGGAUAUCCGGAGGUAGACGAAGGAGAAGGGAAGGUGAACC [AK SSNG3-V2-36] (Eterna round: R96, puzzle: Same State NG 3) |  |  |  | 266 | 382 | 207
3 | AGGGAGGAAGCUGAGGAUAUCGUAGGGAGGACAUGAGGAUCACCCAUGUGUAUAGAAUUGGAGGACGAGAAGGCAGAGGAGUGGG [JR_SS2_Sub051] (puzzle: Same State 2) | 56.6 | 58.5 | 58.2 |  |  | 
4 | GAGCCAGUCCGAGGAUAUUCAUAAAUUAAAUACAUGAGGAUCACCCAUGUAGGCAGAGAGCCUUGGGAGAAGGCGGACUGGCUC [Xeonanisa>>3] (Eterna round: R96, puzzle: Same State NG 2) |  |  |  | 10.9 | 25.5 | 37.3
5 | AGUCCAGCCAGAGCUGGACAAAAGCAUGUACAUGAGGAUCACCCAUGUUCAUGUACAAGCUUUUUGCAAGUCAAAAU [Mat - hsa-mir-208a - Mod of JL - 83] (Eterna round: R96, puzzle: Sensor for hsa-mir-208a) |  |  |  | 578 | 16 | 592
6 | GCUCGCACGAUGACCCACAUGAGGAUCACCCAUGUGCUUGGGCAGGAUAUCUAGAUUAAGGAUGUAGAGAAGGGUCGAGCGAGC [SameState NG3 #28] (Eterna round: R96, puzzle: Same State NG 3) |  |  |  | 303 | 69.6 | 243
7 | UUACUCAUGUAAGGAUAUGCAGCCGAAACGGCUGCAGAAGGUACUAUAAUACAUGAGGAUCACCCAUGUCUUUUUAAUUUAGAC [Mat - Same State NG 1 - JL mod - D82] (Eterna round: R96, puzzle: Same State NG 1) |  |  |  |  | 37 | 
8 | AGCGAAAUAAGCAAGGAUAUGUAAUUUGGCACAUGAGGAUCACCCAUGUCAAUCCAUUUUUUGGAACAGAAGGUGCAUUUUUUUU [ak third] (puzzle: Same State 2) | 69 | 100 | 102 |  |  | 
9 | AGAUAUCCACGACAUGAGGAUCACCCAUGUUGCUACGACAUGGAGGAUAUUCACGAUACACCUGUGAAGAAGGCUAAGGAUAUU [Eternabot solution 16] (Eterna round: R96, puzzle: Same State NG 3) |  |  |  | 631 | 508 | 776
10 | GUAGCAUACCGAGGAUAUUCAAAUUAACAUGAGGAUCACCCAUGUAGGCCACAUUAGUGGCCUUGGGAGAAGGCGGAAUGCUAC [Xeonanis - 20 Mod39] (Eterna round: R96, puzzle: Same State NG 2) |  |  |  | 13.3 | 43.1 | 60.7
11 | GGUCCAGCCUGAGCUGGACAAAAGCAUGUACAUGAGGAUCACCCAUGUUCAUGUACAAGCUUUUUGCUCGUCUUAAA [salish99_208a_r3_035] (puzzle: Sensor for hsa-mir-208a) | 427 | 14.7 | 633 |  |  | 
12 | GGACGUCGAUCUCCUACUUAAACAUGAGGAUCACCCAUGUCACAGGAUAUGAGUCCGAUUAGGACUCAGAAGGGUGCGACGUCC [Fiskers NG3ss - 51] (Eterna round: R96, puzzle: Same State NG 3) |  |  |  | 14 | 12.3 | 18.6
13 | GCCGCGUUUCGCGCCUACAUGAGGAUCACCCAUGUUUGUAGGCAGGAUAUCGUUUGCUUUGCAAGCGAGAAGGGCUGUUGUGGC [salish99_SSNG3_R04_015] (Eterna round: R96, puzzle: Same State NG 3) |  |  |  | 44.3 | 39.2 | 50.7
14 | UUGAAGAAUUAAGGAUAUCGAGUACAUAUGUUAAACAUGAGGAUCACCCAUGUGGGUUGCGGUAUCGAGAAGGUAAAAUACAAG [Mat - Same State NG 2 - JL mod - D58] (Eterna round: R96, puzzle: Same State NG 2) |  |  |  | 28.8 | 26.6 | 33.8
15 | UGUUUGUUGUGAGGAUAUACAUACACCUUACAUGAGGAUCACCCAUGUUGUUACCUUGAUAGUUAGUAGAAGGCACUUGGUUAU [JR_SSNG2_Sub046] (Eterna round: R96, puzzle: Same State NG 2) |  |  |  | 243 | 140 | 261
16 | GUUACAUGAGGAUCACCCAUGUAUGUGUGGGAGUAAGUGACUUAGGAUAUCUAAUAUUUAAAUUAAGAGAAGGAAGAUUGUUGU [JMF's solution 5] (Eterna round: R96, puzzle: Same State NG 3) |  |  |  | 266 | 131 | 202
17 | AGGCUCAGACUAGGAUAUACGUGGUCACAUGAGGAUCACCCAUGUCUCGAGCUUCGGCUCGAGGCGUAGAAGGAGUCUGAGCCA [SSNG2/6-D1] (Eterna round: R96, puzzle: Same State NG 2) |  |  |  | 119 | 260 | 371
18 | AGCUAGUACCGAGGAUAUACAUACAUGAGGAUCACCCAUGUAUACAUGAAAUAUUGAGACUACAUGUAGAAGGCGGUACUAGCA [Mat - Same State NG 2 - JL mod - D44] (Eterna round: R96, puzzle: Same State NG 2) |  |  |  | 13.6 | 28.4 | 46.4
19 | UACGCGAGAGGAGGAUAUGCAGAGGAUCACCCUGUAGAAGGCCUCAUAAGGAGGAUAUGCAGAGGAUCACCCUGUAGAAGGCCU [pwkr ssNG DX.22] (Eterna round: R96, puzzle: Same State NG 1) |  |  |  | 345 | 67.9 | 129
20 | AGUCCAGCCUGAGCUGGACAAAAGCAUGUACAUGAGGAUCACCCAUGUUUAUGUACAAGCUUUUUGCUCGUCUUAAA [Zipper 52 - 12] (puzzle: Sensor for hsa-mir-208a) | 257 | 16.2 | 313 |  |  | 
21 | UGUUGUAUUACAGGAUAUCUAGCAUUUUUAUUUAGAGAAGGGUAUUCACAUGAGGAUCACCCAUGUAUAUACGAGGAAGUUGUG [JMF's solution 32] (Eterna round: R96, puzzle: Same State NG 1) |  |  |  | 54.9 | 42.1 | 51.9
22 | AUUAAUUAAUUAAUACAUGAGGAUCACCCAUGUAAUAAGAUCAAGGAUAUCAGCUCGAAUAGAGCUGAGAAGGUGAUCACAUGU [SSNG3/17-B1] (Eterna round: R96, puzzle: Same State NG 3) |  |  |  |  | 337 | 
23 | UUAAUAAUGAUAGGAUAUACAUGAGGAAUUCUCGUAGAAGGAUCAUGACAUGAGGAUCACCCAUGUAACGCUCGAAAGAGCGUA [Mat - Same State NG 1 - JL mod - D39] (Eterna round: R96, puzzle: Same State NG 1) |  |  |  | 513 | 394 | 662
24 | ACAUGAGACGCAGGAUAUCUUGUACCUACAUGUGACAUGAGGAUCACCCAUGUGGUAAGUAUGAUAGAGAAGGGCGAGAUAUGU [Equivalance 56 - Jieux - Same State NG 2] (Eterna round: R96, puzzle: Same State NG 2) |  |  |  | 19.7 | 31.6 | 58.9
25 | GGAGCCAGCACCGAGGAUAUUCAUAUUAAAACAUGAGGAUCACCCAUGUAGGCCAGAAGGCCUUGGGAGAAGGCGGACUGGCUCG [Xeonanis - 11] (Eterna round: R96, puzzle: Same State 2) |  |  |  | 18.8 | 212 | 364
26 | UUUAGCGUUACAGGAUAUGGUGAGGAUCACCCACUAGAAGGGUAAACAUGUGCGUCGUACAUGAGGAUCACCCAUGUAGGGCGU (Eterna round: R96, puzzle: Same State NG 1) |  |  |  | 14.4 | 13.7 | 22.6
27 | AUCCUACAUGAGGAUCACCCAUGUGACGCCUCAAUAGGAUAUGCGUGUGCCUUGGCGCAUGCAGAAGGAUUGAAGC [JL Aveso mod 1] (puzzle: Same State 1) |  | 295 |  |  |  | 
